Measurements taken from the Immune Epitope Database (IEDB).

How the values were obtained:
HLA-A*02:01 [1] = test: IEDB peptide-MHC binding, purified MHC/competitive/fluorescence; filed as Kd, often an IC50 or EC50 that approximates it; ≥ and ≤ were set here for values at or beyond the usual limits of such assays
HLA-A*02:11 = test: as above
HLA-A*02:12 = test: as above
HLA-A*02:16 = test: as above
HLA-A*02:19 = test: as above
HLA-A*03:01 [2] = test: as above
HLA-A*24:03 = test: as above
HLA-A*26:01 = test: as above
HLA-A*68:02 = test: as above
HLA-A*69:01 [3] = test: as above
HLA-B*18:01 = test: as above
HLA-B*27:03 = test: as above
HLA-B*39:01 = test: as above
HLA-B*46:01 = test: as above
HLA-B*51:01 = test: as above
HLA-B*57:01 = test: as above
HLA-A*01:01 [4] = test: IEDB peptide-MHC binding, purified MHC/competitive/fluorescence; ≥ and ≤ were set here for values at or beyond the usual limits of such assays
HLA-A*02:01 [5] = test: as above
HLA-B*08:01 [6] = test: IEDB peptide-MHC binding, purified MHC/competitive/fluorescence; filed as Kd, often an IC50 or EC50 that approximates it; ≥ and ≤ were set here for values at or beyond the usual limits of such assays
HLA-A*01:01 [7] = test: as above; conditions: source organism: Human betaherpesvirus 7
HLA-A*29:02 = test: as above
HLA-A*02:03 = test: as above
HLA-A*03:01 [8] = test: IEDB peptide-MHC binding, purified MHC/competitive/fluorescence; ≥ and ≤ were set here for values at or beyond the usual limits of such assays
HLA-A*11:01 [9] = test: as above
HLA-B*07:02 [10] = test: as above
HLA-B*08:01 [11] = test: as above
HLA-B*15:01 [12] = test: as above
HLA-A*24:02 = test: as above
HLA-B*40:01 = test: IEDB peptide-MHC binding, purified MHC/competitive/fluorescence; filed as Kd, often an IC50 or EC50 that approximates it; ≥ and ≤ were set here for values at or beyond the usual limits of such assays
HLA-B*15:01 [13] = test: as above
HLA-B*08:02 = test: IEDB peptide-MHC binding, purified MHC/direct/fluorescence; filed as Kd, often an IC50 or EC50 that approximates it; ≥ and ≤ were set here for values at or beyond the usual limits of such assays
HLA-A*02:01 [14] = test: as above; conditions: source organism: Homo sapiens
HLA-A*11:01 [15] = test: as above; conditions: source organism: Homo sapiens
HLA-A*69:01 [16] = test: as above; conditions: source organism: Homo sapiens
HLA-B*07:02 [17] = test: as above; conditions: source organism: Homo sapiens
HLA-B*15:01 [18] = test: as above; conditions: source organism: Homo sapiens
HLA-C*05:01 = test: as above; conditions: source organism: Homo sapiens
HLA-C*12:03 = test: as above; conditions: source organism: Homo sapiens
HLA-A*30:01 = test: IEDB peptide-MHC binding, purified MHC/competitive/radioactivity; filed as Kd, often an IC50 or EC50 that approximates it; ≥ and ≤ were set here for values at or beyond the usual limits of such assays; conditions: source organism: Vaccinia virus WR
[19] = source organism: Rickettsia sibirica 246
[20] = source organism: Vaccinia virus WR
[21] = source organism: Human immunodeficiency virus 1
[22] = source organism: Zaire ebolavirus
[23] = source organism: Vaccinia virus
[24] = source organism: Vaccinia virus Copenhagen
[25] = source organism: Escherichia coli E22
[26] = source organism: Listeria monocytogenes J0161
[27] = source organism: Burkholderia vietnamiensis G4
[28] = source organism: Burkholderia pseudomallei 91

## YLKKLDDFY
HLA-A*02:01 [1]; [19]
  Kd: ≥ 20000 nM
HLA-A*02:11; [19]
  Kd: ≥ 20000 nM
HLA-A*02:12; [19]
  Kd: ≥ 20 µM
HLA-A*02:16; [19]
  Kd: ≥ 20 µM
HLA-A*02:19; [19]
  Kd: ≥ 20 µM
HLA-A*03:01 [2]; [19]
  Kd: ≥ 20 µM
HLA-A*24:03; [19]
  Kd: ≥ 20 µM
HLA-A*26:01; [19]
  Kd: ≥ 20 µM
HLA-A*68:02; [19]
  Kd: ≥ 20 µM
HLA-A*69:01 [3]; [19]
  Kd: ≥ 20 µM
HLA-B*18:01; [19]
  Kd: ≥ 20 µM
HLA-B*27:03; [19]
  Kd: ≥ 20 µM
HLA-B*39:01; [19]
  Kd: ≥ 20 µM
HLA-B*46:01; [19]
  Kd: ≥ 20 µM
HLA-B*51:01; [19]
  Kd: ≥ 20 µM
HLA-B*57:01; [19]
  Kd: ≥ 20 µM

## PIDSHKGYV
HLA-A*01:01 [4]; [20]
  IC50: 29.4 µM
HLA-A*02:01 [5]; [20]
  IC50: ≥ 129 µM

## LAARKARAA
HLA-B*08:01 [6]; source organism: Escherichia coli
  Kd: 644 nM

## LSMFVTNKK
HLA-A*01:01 [7]
  Kd: 3000 nM
HLA-A*29:02; source organism: Human betaherpesvirus 7
  Kd: 0.0627 µM

## GLGQYIYET
HLA-A*02:01 [1]; [21]
  Kd: 140 nM
HLA-A*02:03; [21]
  Kd: 0.294 µM
HLA-A*02:11; [21]
  Kd: 32.2 nM
HLA-A*02:12; [21]
  Kd: 0.039 µM
HLA-A*02:16; [21]
  Kd: 0.000819 µM
HLA-A*02:19; [21]
  Kd: 0.254 µM
HLA-A*69:01 [3]; [21]
  Kd: ≥ 20 µM

## RFKRTSFFL
HLA-A*02:01 [5]; [22]
  IC50: ≥ 117 µM
HLA-A*03:01 [8]; [22]
  IC50: ≥ 504 µM
HLA-A*11:01 [9]; [22]
  IC50: ≥ 390 µM
HLA-B*07:02 [10]; [22]
  IC50: ≥ 215 µM
HLA-B*08:01 [11]; [22]
  IC50: 26.5 µM
HLA-B*15:01 [12]; [22]
  IC50: 9.58 µM

## AMEKSSKYY
HLA-A*01:01 [4]; [23]
  IC50: 28.5 µM
HLA-A*02:01 [5]; [23]
  IC50: ≥ 1170 µM
HLA-A*03:01 [8]; [23]
  IC50: ≥ 142 µM
HLA-A*11:01 [9]; [23]
  IC50: ≥ 195 µM
HLA-A*24:02; [23]
  IC50: ≥ 962 µM
HLA-B*15:01 [12]; [23]
  IC50: 11 µM

## IAVARKHHT
HLA-A*24:02; source organism: Variola virus
  IC50: 49.4 µM
HLA-B*08:01 [11]; source organism: Variola virus
  IC50: ≥ 91.6 µM

## LSSQMTSTF
HLA-A*01:01 [4]; [24]
  IC50: ≥ 129 µM
HLA-A*02:01 [5]; [24]
  IC50: ≥ 155 µM
HLA-A*24:02; [24]
  IC50: 0.788 µM
HLA-B*15:01 [12]; [24]
  IC50: 4.85 µM

## TLHFKQYEF
HLA-B*08:01 [6]; source organism: Influenza A virus (A/Wyoming/3/2003-X-147(H3N2))
  Kd: 433 nM

## IEIARTLTL
HLA-B*40:01; source organism: Salmonella enterica subsp. enterica serovar Typhi
  Kd: 10.8 nM

## FLKIKVTAA
HLA-B*08:01 [11]; [24]
  IC50: 15.6 µM

## DEIAFGLKL
HLA-B*15:01 [13]; [25]
  Kd: ≥ 20 µM
HLA-B*40:01; [25]
  Kd: 3000 nM

## YNAKRIETV
HLA-A*02:01 [1]; [26]
  Kd: ≥ 20000 nM
HLA-A*02:03; [26]
  Kd: ≥ 20 µM
HLA-A*02:11; [26]
  Kd: 239 nM
HLA-A*02:12; [26]
  Kd: ≥ 20 µM
HLA-A*02:19; [26]
  Kd: ≥ 20 µM
HLA-A*03:01 [2]; [26]
  Kd: ≥ 20 µM
HLA-A*24:03; [26]
  Kd: ≥ 20 µM
HLA-A*26:01; [26]
  Kd: ≥ 20 µM
HLA-A*29:02; [26]
  Kd: ≥ 20 µM
HLA-B*15:01 [13]; [26]
  Kd: ≥ 20 µM
HLA-B*18:01; [26]
  Kd: ≥ 20 µM
HLA-B*27:03; [26]
  Kd: ≥ 20 µM
HLA-B*39:01; [26]
  Kd: ≥ 20 µM
HLA-B*46:01; [26]
  Kd: ≥ 20 µM
HLA-B*51:01; [26]
  Kd: ≥ 20 µM
HLA-B*57:01; [26]
  Kd: ≥ 20 µM

## LPKRSVMLI
HLA-A*24:02; [20]
  IC50: ≥ 93 µM
HLA-B*07:02 [10]; [20]
  IC50: 6.45 µM
HLA-B*08:01 [11]; [20]
  IC50: 12.9 µM

## PLFKRGWRL
HLA-A*02:01 [1]; [27]
  Kd: 199 nM
HLA-A*02:11; [27]
  Kd: 28.5 nM
HLA-A*03:01 [2]; [27]
  Kd: ≥ 20 µM
HLA-A*24:03; [27]
  Kd: ≥ 20 µM
HLA-A*26:01; [27]
  Kd: ≥ 20 µM
HLA-A*29:02; [27]
  Kd: ≥ 20 µM
HLA-B*15:01 [13]; [27]
  Kd: ≥ 20 µM
HLA-B*18:01; [27]
  Kd: ≥ 20 µM
HLA-B*27:03; [27]
  Kd: ≥ 20 µM
HLA-B*39:01; [27]
  Kd: ≥ 20 µM
HLA-B*46:01; [27]
  Kd: ≥ 20 µM
HLA-B*51:01; [27]
  Kd: ≥ 20 µM
HLA-B*57:01; [27]
  Kd: ≥ 20 µM

## VINWKGKEL
HLA-B*08:02; source organism: dengue virus type 3
  Kd: ≥ 20000 nM

## LVMAPRTVL
HLA-A*02:01 [14]
  Kd: ≥ 39.5 µM
HLA-A*11:01 [15]
  Kd: 10.3 µM
HLA-A*69:01 [16]
  Kd: 3.61 µM
HLA-B*07:02 [17]
  Kd: 179 nM
HLA-B*15:01 [18]
  Kd: 731 nM
HLA-C*05:01
  Kd: 2040 nM
HLA-C*12:03
  Kd: 102 nM

## HFKPPKFRA
HLA-B*08:01 [11]; [23]
  IC50: ≥ 150 µM
HLA-A*30:01
  Kd: 8.86 nM

## FLRRRRAAL
HLA-B*08:02; source organism: Burkholderia mallei ATCC 23344
  Kd: 71 nM

## RVNPGTYVY
HLA-A*01:01 [4]; source organism: Variola virus
  IC50: 10.3 µM
HLA-A*03:01 [8]; source organism: Variola virus
  IC50: 4.32 µM
HLA-A*11:01 [9]; source organism: Variola virus
  IC50: 0.701 µM
HLA-B*15:01 [12]; source organism: Variola virus
  IC50: 9.02 µM

## RAYAAMHLW
HLA-A*02:01 [1]; [28]
  Kd: ≥ 20000 nM
HLA-A*02:03; [28]
  Kd: ≥ 20 µM
HLA-A*02:11; [28]
  Kd: ≥ 20000 nM
HLA-A*02:12; [28]
  Kd: ≥ 20 µM
HLA-A*02:16; [28]
  Kd: ≥ 20 µM
HLA-A*02:19; [28]
  Kd: ≥ 20 µM
HLA-A*03:01 [2]; [28]
  Kd: ≥ 20 µM
HLA-A*26:01; [28]
  Kd: ≥ 20 µM
HLA-A*68:02; [28]
  Kd: ≥ 20 µM
HLA-A*69:01 [3]; [28]
  Kd: ≥ 20 µM
HLA-B*27:03; [28]
  Kd: ≥ 20 µM
HLA-B*39:01; [28]
  Kd: ≥ 20 µM
HLA-B*46:01; [28]
  Kd: ≥ 20 µM
HLA-B*57:01; [28]
  Kd: 0.31 µM

## YSTTIRYQA
HLA-A*01:01 [4]; [22]
  IC50: ≥ 207 µM
HLA-A*02:01 [5]; [22]
  IC50: 42.3 µM
